Substitutions are numbered along the chain they refer to. One block for each binder: values may come before it.
Experiments:
[1] = target: T1, human IL-11 (AAH12506.1, Pro22-Leu199) (human, UniProt P20809 22-199); experiment: BLI (Octet QKe), antibody on anti-mouse Fc probe, human IL-11 300 nM
T1 construct: The range Pro22-Leu199 counts on AAH12506.1; The Octet runs say only 'human IL-11'; also called hIL-11
T1 chain: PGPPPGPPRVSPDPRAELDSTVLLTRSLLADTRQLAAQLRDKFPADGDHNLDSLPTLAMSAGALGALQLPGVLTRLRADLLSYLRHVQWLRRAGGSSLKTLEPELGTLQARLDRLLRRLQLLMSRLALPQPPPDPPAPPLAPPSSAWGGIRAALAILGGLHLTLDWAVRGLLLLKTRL
Procedure: When the hybridoma cells were cultured to a certain number, culture supernatants were collected and purified using Protein G affinity chromatography to obtain murine hybridoma antibodies (Hy5C2, Hy8C8, Hy16B5, Hy18A10, Hy18H10, Hy23G6 and Hy29C11). The affinity of the murine antibodies purified from the hybridoma supernatants was determined using an Octet QKe System instrument from Fortebio Inc. with an anti-mouse IgG Fc Capture biosensor to capture the Fc fragments of the antibodies, for which an anti-IL-11 antibody named “3C6-mFc” recombinantly expressed was used at the same concentration as a positive control. Specifically, a hybridoma supernatant was diluted with HBS-EP+ buffer (GE), and was allowed to pass through the surface of AMC probes (Cat: 18-5088, PALL), and so the antibody in the hybridoma supernatant was captured on the surface of the probes; then, human IL-11 diluted in the HBS-EP+ buffer (300 nM) was used as a mobile phase to react with the antibody captured on the surface of the probes. Both the binding and the dissociating were conducted for 300 seconds. When the experiment was finished, data from which response values of blank controls had been deducted was fitted using a 1:1 Langmuir binding model by software, and then kinetic constants for antigen-antibody binding were calculated. Binding signals were detected on the Octet QKe System instrument with Hy5C2, Hy8C8, Hy16B5, Hy18A10, and Hy18H10.

[2] = target: T2, mIL11; experiment: direct ELISA, hybridoma supernatant on plate-immobilised murine IL-11, OD450
T2 construct: also called murine IL-11 (NP_032376.1, Pro22-Leu199)
T2 cytokine chain: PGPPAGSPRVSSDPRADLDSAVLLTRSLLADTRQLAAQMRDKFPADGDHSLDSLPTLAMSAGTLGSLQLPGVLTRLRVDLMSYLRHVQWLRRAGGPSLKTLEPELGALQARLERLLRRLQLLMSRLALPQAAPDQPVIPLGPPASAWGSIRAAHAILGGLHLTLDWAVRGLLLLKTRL
Source text: Murine anti-IL-11 hybridoma monoclones 5C2, 8C8, 16B5, 18A10, 18H10, 23G6 and 29C11 were obtained by murine hybridoma technology. The binding activity of the supernatants of those clones to human IL-11 (AAH12506.1, Pro22-Leu199; SEQ ID NO.128) and murine IL-11 (NP_032376.1, Pro22-Leu199; SEQ ID NO.129) immobilized on the surface of ELISA plates was detected via direct ELISA.

[3] = target: T3, human IL-11Rα, full length, stably expressed on STAT3-Luc HEK293 cells (human, UniProt Q14626 23-422); experiment: cell-based or functional assay
T3 sequence (looked up): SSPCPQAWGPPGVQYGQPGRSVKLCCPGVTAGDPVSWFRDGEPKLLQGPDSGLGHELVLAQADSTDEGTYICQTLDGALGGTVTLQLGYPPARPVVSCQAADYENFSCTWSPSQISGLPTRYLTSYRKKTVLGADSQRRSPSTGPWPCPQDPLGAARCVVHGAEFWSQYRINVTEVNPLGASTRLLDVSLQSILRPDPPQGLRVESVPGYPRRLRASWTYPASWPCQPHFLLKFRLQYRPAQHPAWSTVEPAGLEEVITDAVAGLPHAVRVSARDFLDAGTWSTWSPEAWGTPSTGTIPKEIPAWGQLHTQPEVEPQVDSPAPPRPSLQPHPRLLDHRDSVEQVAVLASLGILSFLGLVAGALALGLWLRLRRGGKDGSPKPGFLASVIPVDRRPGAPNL

Kd [1]: 1.3 nM
koff [1]: 0.00204 s⁻¹
kon [1]: 1.51e+06 M⁻¹ s⁻¹
binding result [2]: binds
B1: Hy8C8 (antibody, V domains shown)
VH: DVQLVESGGGLVQPGGSRKLSCAASGFTFSSFGMHWVRQSPERGLEWVAYITSGSNTIYYADTVKGRFTISRDNPENTLFLQMTSLRSEDTAMYYCAREYYSYDEGFAYWGQGTLVTVSA
VL: EIVLTQSPTTMAASPGEKITITCSVSSSISSNYLHWYQQKPGFSPKLLIYRTSNLASGVPARFSGSGSGTSHSLTIDTMEAEDVATYYCQQGVDVPFTFGSGTKLEIKR
notes: murine hybridoma antibody

EC50 of IL-11 in stimulating the transcriptional expression of STAT3-luc reporter gene [3]: 0.11 ng/mL
B2: IL-11 (Cat. 12225-HNCE, Sino Biological Inc.) (ligand, UniProt P20809 22-199, looked up)
chain: T1 chain with L154H

Kd [1]: 1.09 nM
koff [1]: 0.00187 s⁻¹
kon [1]: 1.71e+06 M⁻¹ s⁻¹
binding result [2]: binds
B3: Hy18A10 (antibody, V domains shown)
VH: QVQLQQPGAELVKPGASVKMSCKASGYKFITYNMDWVKQTPGQGLEWIGTIYPGNGDTSYNQKFKGKATLTADKSSSTAYMQLSSLTSEDSAVYYCARGDLYALDYWGQGTSVTVSS
VL: SIVMTQTPKFLLVSAGDRVTITCKASQSVSNDVAWYQQKPGQSPKLLIYSASNRYTGVPDRFTGSGYGTDFTFTINTVQAEDLAVYFCQHDYSSPYTFGGGTKLEIKR
notes: murine hybridoma antibody
